B1: RTP4 (parent)
chain: TYWEHWTSQGQVRMRLFGQRCQKC

Variants of: B1
Test: protein stability index of a GFP-peptide fusion (GPS, HEK-293T) (PSI 1-6); higher = more stable
Details: c terminus: a fixed tail appended
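Also: lentivirally expressed fusions sorted by FACS into six bins by GFP to DsRed ratio, PSI derived from sequencing read proportions per bin multiplied by bin number.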

| Variant | protein stability index |
| --- | --- |
| TYWEHWTPQGQVRMRLFGQRCQKC | 1.66 |
| TYWEHWTQQGQVRMRLFGQRCQKC | 1.77 |
| TYWEHWTRQGQVRMRLFGQRCQKC | 1.89 |
| TYWEHWTTQGQVRMRLFGQRCQKC | 3.23 |
| TYWEHWTVQGQVRMRLFGQRCQKC | 1.67 |
| TYWEHWTYQGQVRMRLFGQRCQKC | 1.82 |
| TYWEHWTSAGQVRMRLFGQRCQKC | 1.95 |
| TYWEHWTSCGQVRMRLFGQRCQKC | 1.48 |
| TYWEHWTSDGQVRMRLFGQRCQKC | 1.4 |
| TYWEHWTSEGQVRMRLFGQRCQKC | 2.02 |
| TYWEHWTSFGQVRMRLFGQRCQKC | 1.77 |
| TYWEHWTSGGQVRMRLFGQRCQKC | 1.27 |
| TYWEHWTSHGQVRMRLFGQRCQKC | 1.18 |
| TYWEHWTSIGQVRMRLFGQRCQKC | 2.08 |
| TYWEHWTSKGQVRMRLFGQRCQKC | 2.17 |
| TYWEHWTSNGQVRMRLFGQRCQKC | 2.08 |
| TYWEHWTSPGQVRMRLFGQRCQKC | 1.6 |
| TYWEHWTSRGQVRMRLFGQRCQKC | 2.24 |
| TYWEHWTSTGQVRMRLFGQRCQKC | 1.8 |
| TYWEHWTSVGQVRMRLFGQRCQKC | 2.5 |
| TYWEHWTSWGQVRMRLFGQRCQKC | 1.69 |
| TYWEHWTSQAQVRMRLFGQRCQKC | 1.33 |
| TYWEHWTSQCQVRMRLFGQRCQKC | 1.87 |
| TYWEHWTSQDQVRMRLFGQRCQKC | 2.21 |

| Variant | protein stability index |
| --- | --- |
| TYWEHWTSQFQVRMRLFGQRCQKC | 2.53 |
| TYWEHWTSQHQVRMRLFGQRCQKC | 1.76 |
| TYWEHWTSQIQVRMRLFGQRCQKC | 2.47 |
| TYWEHWTSQLQVRMRLFGQRCQKC | 1.89 |
| TYWEHWTSQMQVRMRLFGQRCQKC | 1.68 |
| TYWEHWTSQPQVRMRLFGQRCQKC | 1.91 |
| TYWEHWTSQQQVRMRLFGQRCQKC | 1.8 |
| TYWEHWTSQRQVRMRLFGQRCQKC | 1.69 |
| TYWEHWTSQSQVRMRLFGQRCQKC | 2.39 |
| TYWEHWTSQTQVRMRLFGQRCQKC | 2.27 |
| TYWEHWTSQWQVRMRLFGQRCQKC | 2.07 |
| TYWEHWTSQYQVRMRLFGQRCQKC | 1.92 |
| TYWEHWTSQGAVRMRLFGQRCQKC | 1.84 |
| TYWEHWTSQGCVRMRLFGQRCQKC | 3.14 |
| TYWEHWTSQGDVRMRLFGQRCQKC | 2.41 |
| TYWEHWTSQGGVRMRLFGQRCQKC | 2.64 |
| TYWEHWTSQGHVRMRLFGQRCQKC | 1.65 |
| TYWEHWTSQGIVRMRLFGQRCQKC | 2.31 |
| TYWEHWTSQGKVRMRLFGQRCQKC | 2.48 |
| TYWEHWTSQGLVRMRLFGQRCQKC | 2.02 |
| TYWEHWTSQGMVRMRLFGQRCQKC | 2.4 |
| TYWEHWTSQGNVRMRLFGQRCQKC | 2.01 |
| TYWEHWTSQGPVRMRLFGQRCQKC | 2.14 |
| TYWEHWTSQGRVRMRLFGQRCQKC | 2.6 |

| Variant | protein stability index |
| --- | --- |
| TYWEHWTSQGSVRMRLFGQRCQKC | 2.59 |
| TYWEHWTSQGYVRMRLFGQRCQKC | 1.58 |
| TYWEHWTSQGQARMRLFGQRCQKC | 1.04 |
| TYWEHWTSQGQCRMRLFGQRCQKC | 2.42 |
| TYWEHWTSQGQDRMRLFGQRCQKC | 1.7 |
| TYWEHWTSQGQERMRLFGQRCQKC | 2.19 |
| TYWEHWTSQGQHRMRLFGQRCQKC | 2.21 |
| TYWEHWTSQGQIRMRLFGQRCQKC | 1.61 |
| TYWEHWTSQGQKRMRLFGQRCQKC | 1.57 |
| TYWEHWTSQGQNRMRLFGQRCQKC | 1.65 |
| TYWEHWTSQGQPRMRLFGQRCQKC | 1.98 |
| TYWEHWTSQGQQRMRLFGQRCQKC | 1.51 |
| TYWEHWTSQGQRRMRLFGQRCQKC | 1.76 |
| TYWEHWTSQGQTRMRLFGQRCQKC | 2.09 |
| TYWEHWTSQGQWRMRLFGQRCQKC | 3.46 |
| TYWEHWTSQGQYRMRLFGQRCQKC | 2.65 |
| TYWEHWTSQGQVCMRLFGQRCQKC | 2.78 |
| TYWEHWTSQGQVDMRLFGQRCQKC | 2.04 |
| TYWEHWTSQGQVEMRLFGQRCQKC | 1.74 |
| TYWEHWTSQGQVGMRLFGQRCQKC | 1.65 |
| TYWEHWTSQGQVHMRLFGQRCQKC | 2.4 |
| TYWEHWTSQGQVIMRLFGQRCQKC | 2.76 |
| TYWEHWTSQGQVLMRLFGQRCQKC | 1.69 |
| TYWEHWTSQGQVNMRLFGQRCQKC | 1.54 |

| Variant | protein stability index |
| --- | --- |
| TYWEHWTSQGQVPMRLFGQRCQKC | 1.92 |
| TYWEHWTSQGQVSMRLFGQRCQKC | 1.59 |
| TYWEHWTSQGQVVMRLFGQRCQKC | 1.65 |
| TYWEHWTSQGQVWMRLFGQRCQKC | 2.11 |
| TYWEHWTSQGQVRARLFGQRCQKC | 2 |
| TYWEHWTSQGQVRCRLFGQRCQKC | 2.58 |
| TYWEHWTSQGQVRDRLFGQRCQKC | 2.05 |
| TYWEHWTSQGQVRERLFGQRCQKC | 2.36 |
| TYWEHWTSQGQVRFRLFGQRCQKC | 1.63 |
| TYWEHWTSQGQVRGRLFGQRCQKC | 2.51 |
| TYWEHWTSQGQVRHRLFGQRCQKC | 2.18 |
| TYWEHWTSQGQVRKRLFGQRCQKC | 2.9 |
| TYWEHWTSQGQVRLRLFGQRCQKC | 1.39 |
| TYWEHWTSQGQVRNRLFGQRCQKC | 1.69 |
| TYWEHWTSQGQVRQRLFGQRCQKC | 1.73 |
| TYWEHWTSQGQVRRRLFGQRCQKC | 2.29 |
| TYWEHWTSQGQVRSRLFGQRCQKC | 1.5 |
| TYWEHWTSQGQVRTRLFGQRCQKC | 1.84 |
| TYWEHWTSQGQVRVRLFGQRCQKC | 1.89 |
| TYWEHWTSQGQVRWRLFGQRCQKC | 1.77 |
| TYWEHWTSQGQVRYRLFGQRCQKC | 1.9 |
| TYWEHWTSQGQVRMALFGQRCQKC | 2.06 |
| TYWEHWTSQGQVRMCLFGQRCQKC | 3.05 |
| TYWEHWTSQGQVRMDLFGQRCQKC | 2.71 |

| Variant | protein stability index |
| --- | --- |
| TYWEHWTSQGQVRMELFGQRCQKC | 2.07 |
| TYWEHWTSQGQVRMFLFGQRCQKC | 1.75 |
| TYWEHWTSQGQVRMGLFGQRCQKC | 1.6 |
| TYWEHWTSQGQVRMHLFGQRCQKC | 1.85 |
| TYWEHWTSQGQVRMILFGQRCQKC | 2.12 |
| TYWEHWTSQGQVRMKLFGQRCQKC | 2.31 |
| TYWEHWTSQGQVRMLLFGQRCQKC | 1.97 |
| TYWEHWTSQGQVRMMLFGQRCQKC | 2.09 |
| TYWEHWTSQGQVRMNLFGQRCQKC | 2.1 |
| TYWEHWTSQGQVRMPLFGQRCQKC | 1.87 |
| TYWEHWTSQGQVRMQLFGQRCQKC | 1.86 |
| TYWEHWTSQGQVRMSLFGQRCQKC | 1.21 |
| TYWEHWTSQGQVRMTLFGQRCQKC | 1.7 |
| TYWEHWTSQGQVRMVLFGQRCQKC | 1.64 |
| TYWEHWTSQGQVRMRAFGQRCQKC | 1.6 |
| TYWEHWTSQGQVRMRCFGQRCQKC | 2.99 |
| TYWEHWTSQGQVRMRDFGQRCQKC | 2.85 |
| TYWEHWTSQGQVRMRFFGQRCQKC | 2.22 |
| TYWEHWTSQGQVRMRGFGQRCQKC | 2.13 |
| TYWEHWTSQGQVRMRHFGQRCQKC | 2.34 |
| TYWEHWTSQGQVRMRIFGQRCQKC | 1.62 |
| TYWEHWTSQGQVRMRKFGQRCQKC | 1.25 |
| TYWEHWTSQGQVRMRNFGQRCQKC | 2.43 |
| TYWEHWTSQGQVRMRPFGQRCQKC | 2.13 |

| Variant | protein stability index |
| --- | --- |
| TYWEHWTSQGQVRMRQFGQRCQKC | 1.79 |
| TYWEHWTSQGQVRMRRFGQRCQKC | 1.91 |
| TYWEHWTSQGQVRMRSFGQRCQKC | 1.75 |
| TYWEHWTSQGQVRMRTFGQRCQKC | 1.14 |
| TYWEHWTSQGQVRMRVFGQRCQKC | 1.81 |
| TYWEHWTSQGQVRMRWFGQRCQKC | 1.62 |
| TYWEHWTSQGQVRMRYFGQRCQKC | 2.61 |
| TYWEHWTSQGQVRMRLAGQRCQKC | 1.87 |
| TYWEHWTSQGQVRMRLCGQRCQKC | 2.57 |
| TYWEHWTSQGQVRMRLDGQRCQKC | 2.01 |
| TYWEHWTSQGQVRMRLEGQRCQKC | 2.29 |
| TYWEHWTSQGQVRMRLGGQRCQKC | 2.31 |
| TYWEHWTSQGQVRMRLHGQRCQKC | 2.79 |
| TYWEHWTSQGQVRMRLIGQRCQKC | 1.67 |
| TYWEHWTSQGQVRMRLKGQRCQKC | 1.92 |
| TYWEHWTSQGQVRMRLLGQRCQKC | 1.85 |
| TYWEHWTSQGQVRMRLMGQRCQKC | 2.37 |
| TYWEHWTSQGQVRMRLNGQRCQKC | 2.9 |
| TYWEHWTSQGQVRMRLPGQRCQKC | 2.38 |
| TYWEHWTSQGQVRMRLQGQRCQKC | 2.26 |
| TYWEHWTSQGQVRMRLSGQRCQKC | 2.27 |
| TYWEHWTSQGQVRMRLTGQRCQKC | 2.02 |
| TYWEHWTSQGQVRMRLWGQRCQKC | 2.44 |
| TYWEHWTSQGQVRMRLYGQRCQKC | 1.55 |

| Variant | protein stability index |
| --- | --- |
| TYWEHWTSQGQVRMRLFAQRCQKC | 1.96 |
| TYWEHWTSQGQVRMRLFCQRCQKC | 2.03 |
| TYWEHWTSQGQVRMRLFDQRCQKC | 2.04 |
| TYWEHWTSQGQVRMRLFEQRCQKC | 2.24 |
| TYWEHWTSQGQVRMRLFFQRCQKC | 1.87 |
| TYWEHWTSQGQVRMRLFHQRCQKC | 2.23 |
| TYWEHWTSQGQVRMRLFIQRCQKC | 2.39 |
| TYWEHWTSQGQVRMRLFKQRCQKC | 1.86 |
| TYWEHWTSQGQVRMRLFMQRCQKC | 1.36 |
| TYWEHWTSQGQVRMRLFNQRCQKC | 2.14 |
| TYWEHWTSQGQVRMRLFPQRCQKC | 1.81 |
| TYWEHWTSQGQVRMRLFQQRCQKC | 1.4 |
| TYWEHWTSQGQVRMRLFRQRCQKC | 2.02 |
| TYWEHWTSQGQVRMRLFSQRCQKC | 1.46 |
| TYWEHWTSQGQVRMRLFTQRCQKC | 1.91 |
| TYWEHWTSQGQVRMRLFWQRCQKC | 1.74 |
| TYWEHWTSQGQVRMRLFYQRCQKC | 2.41 |
| TYWEHWTSQGQVRMRLFGARCQKC | 1.98 |
| TYWEHWTSQGQVRMRLFGCRCQKC | 2.9 |
| TYWEHWTSQGQVRMRLFGDRCQKC | 1.97 |
| TYWEHWTSQGQVRMRLFGERCQKC | 1.62 |
| TYWEHWTSQGQVRMRLFGFRCQKC | 1.66 |
| TYWEHWTSQGQVRMRLFGGRCQKC | 1.45 |
| TYWEHWTSQGQVRMRLFGHRCQKC | 2.6 |

| Variant | protein stability index |
| --- | --- |
| TYWEHWTSQGQVRMRLFGIRCQKC | 2.31 |
| TYWEHWTSQGQVRMRLFGKRCQKC | 1.8 |
| TYWEHWTSQGQVRMRLFGLRCQKC | 1.04 |
| TYWEHWTSQGQVRMRLFGNRCQKC | 1.58 |
| TYWEHWTSQGQVRMRLFGPRCQKC | 1.25 |
| TYWEHWTSQGQVRMRLFGRRCQKC | 1.46 |
| TYWEHWTSQGQVRMRLFGSRCQKC | 1.61 |
| TYWEHWTSQGQVRMRLFGTRCQKC | 1.05 |
| TYWEHWTSQGQVRMRLFGVRCQKC | 2.23 |
| TYWEHWTSQGQVRMRLFGWRCQKC | 2.6 |
| TYWEHWTSQGQVRMRLFGYRCQKC | 1.03 |
| TYWEHWTSQGQVRMRLFGQCCQKC | 2.72 |
| TYWEHWTSQGQVRMRLFGQDCQKC | 2.47 |
| TYWEHWTSQGQVRMRLFGQECQKC | 1.57 |
| TYWEHWTSQGQVRMRLFGQFCQKC | 1.82 |
| TYWEHWTSQGQVRMRLFGQGCQKC | 1.93 |
| TYWEHWTSQGQVRMRLFGQHCQKC | 1.63 |
| TYWEHWTSQGQVRMRLFGQICQKC | 1.03 |
| TYWEHWTSQGQVRMRLFGQKCQKC | 1.86 |
| TYWEHWTSQGQVRMRLFGQLCQKC | 1.75 |

— the supplement of paper PMC10567573
